Measured values reported in patent publication US20210139581A1 (Alector, published 2021).
Positions count from the first letter of the chain named. Where two headings read alike, the source gives them in different places.

Key:
[1] = target: T1, human CD33 on primary human monocyte-derived dendritic cells (human, UniProt P20138 18-364); test: cell-based or functional assay
[2] = target: T2, human CD33 (human, UniProt P20138 18-259, limits assumed); test: BLI (ForteBio), Fab 100 nM on immobilized CD33
T2 construct: Human CD33 immobilized on the BLI sensor tip or the BIAcore C1 chip; also called Siglec-3
T2 sequence (P20138 18-259 limits assumed): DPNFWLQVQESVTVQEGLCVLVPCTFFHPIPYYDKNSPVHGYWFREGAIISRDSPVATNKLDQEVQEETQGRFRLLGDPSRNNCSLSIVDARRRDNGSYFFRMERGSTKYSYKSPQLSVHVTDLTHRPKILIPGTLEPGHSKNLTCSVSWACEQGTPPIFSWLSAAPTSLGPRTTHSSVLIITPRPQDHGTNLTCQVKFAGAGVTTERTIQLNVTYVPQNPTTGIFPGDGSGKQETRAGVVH
Experimental: The affinities (KD) of the humanized antibodies for human CD33 were measured for each antibody by BioLayer Interferometry in a ForteBio assay according to standard techniques (Estep et al. (2013) MAbs 5(2): 270-8). […] The assay was carried out at room temperature.
The affinities of AB-H14 and its affinity-matured variants (Table 15) and AB-H63 and its affinity-matured variants (Table 16), for human CD33 were measured by Fortebio assay according to the method described in Example 1 above.

[3] = target: T1, human CD33 on primary human …; test: cell-based or functional assay; remark: listed apart in the source
[4] = target: T1, human CD33 on primary human …; test: cell-based or functional assay; remark: listed apart in the source
[5] = target: T2, human CD33; test: SPR (BIAcore), Fab over CD33 on C1 chip
Experimental: The affinity parameters for 10 of the 88 humanized antibodies (AB-H1, AB-H3, AB-H6, AB-H11, AB-H22, AB-H24, AB-H26, AB-H63, AB-H64, and AB-H71) were measured in a separate experiment by a more sensitive technique, surface plasmon resonance (BIAcore), and compared to Chimeric Ab and Chimeric Ab #2. BIAcore measurements were performed as follows: human CD33 was immobilized on the surface of a C1 chip, and Fabs were injected for 300 s to monitor association, followed by a 900 s flow in running buffer to monitor dissociation. The Fabs were measured at 5 concentrations: a high concentration of 27 nM and 3-fold serial dilutions.

T1 sequence (P20138 18-364): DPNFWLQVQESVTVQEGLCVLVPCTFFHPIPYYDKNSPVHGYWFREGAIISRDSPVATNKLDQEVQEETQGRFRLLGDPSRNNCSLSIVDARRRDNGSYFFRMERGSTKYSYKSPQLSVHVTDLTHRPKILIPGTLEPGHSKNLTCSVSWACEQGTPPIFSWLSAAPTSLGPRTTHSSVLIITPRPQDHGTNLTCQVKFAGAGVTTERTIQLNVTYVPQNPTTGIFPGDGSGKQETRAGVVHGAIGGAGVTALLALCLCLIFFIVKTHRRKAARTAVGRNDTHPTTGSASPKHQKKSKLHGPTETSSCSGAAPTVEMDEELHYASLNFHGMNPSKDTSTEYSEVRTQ

B1: AB-14.1 (antibody, V domains shown)
VH: QVQLVQSGAEVKKPGASVKVSCKASGATFTDYNFHWVRQAPGQGLEWIGFIYPSNGITGYAQDFQGRVTMTVDTSTSTVYMELSSLRSEDTAVYYCARSDVDYFDYWGQGTLVTVSS
VL: DIQMTQSPSSLSASVGDRVTITCRASQSVSTSTYSYMHWYQQKPGKAPKLLIKYASNLESGVPSRFSGSGSGTDFTLTISSLQPEDFATYYCQHSWEIPLTFGQGTKLEIK
Question: Which results are given for B1?
Answer: Maximal Downregulation (% CD33 remaining) [1]: 18.6%; Receptor downregulation (EC50) [1]: 0.0927 nM; Fold affinity improvement over parental Ab (AB-H14) [2]: 9.73 fold; Kd [2]: ≤ 0.299 nM; koff [2]: ≤ 0.0002 s⁻¹; kon [2]: 670000 M⁻¹ s⁻¹

B2: AB-14.5 (antibody, V domains shown)
VH: B1 VH with A27Y, F34Y, D63K
VL: B1 VL with S28D, Q42R
Question: With B2 as the binder, how does the “Maximal Downregulation (% CD33 remaining)” value [1] read?
Answer: 26.4%

Question: What about the “Receptor downregulation (EC50)” value [1] of the same binder?
Answer: 0.0342 nM

Question: And the “Fold affinity improvement over parental Ab (AB-H14)” value [2]?
Answer: 13.7 fold

Question: What about the Kd [2] of the same binder?
Answer: 0.212 nM

Question: And the koff [2]?
Answer: 0.0002 s⁻¹

Question: What about the kon [2] of the same binder?
Answer: 945000 M⁻¹ s⁻¹

B3: AB-14.2 (antibody, V domains shown)
VH: B1 VH with F34Y, D63K, G66D, D100F
VL: B1 VL with S28D
Question: For B3, which “Maximal Downregulation (% CD33 remaining)” value [1] is on record?
Answer: 23.8%

Question: What about the “Receptor downregulation (EC50)” value [1] of the same binder?
Answer: 0.055 nM

Question: What about the “Fold affinity improvement over parental Ab (AB-H14)” value [2] of the same binder?
Answer: 14.4 fold

Question: And the Kd [2]?
Answer: 0.202 nM

Question: And the koff [2]?
Answer: 0.0002 s⁻¹

Question: And the kon [2]?
Answer: 991000 M⁻¹ s⁻¹

B4: AB-14.6 (antibody, V domains shown)
VH: B1 VH with A27Y, F34Y, D63K
VL: B1 VL with S30G, N57A
Question: With B4 as the binder, how does the “Maximal Downregulation (% CD33 remaining)” value [1] read?
Answer: 24%

Question: And the “Receptor downregulation (EC50)” value [1]?
Answer: 0.0324 nM

Question: What about the “Fold affinity improvement over parental Ab (AB-H14)” value [2] of the same binder?
Answer: 9.83 fold

Question: And the Kd [2]?
Answer: 0.295 nM

Question: What about the koff [2] of the same binder?
Answer: 0.000264 s⁻¹

Question: What about the kon [2] of the same binder?
Answer: 894000 M⁻¹ s⁻¹

B5: AB-63.17 (antibody, V domains shown)
VH: B1 VH with A27Y, F34Y, D63K
VL: DIVLTQSPDSLAVSLGERATINCRGSQSVSTSTYSYMHWYQQKPGQPPKLLIKYESNLESGVPDRFSGSGSGTDFTLTISSLQAEDVAVYYCQHSWEIPLTFGQGTKLEIK
Question: For B5, which “Maximal Downregulation (% CD33 remaining)” value [3] is on record?
Answer: 27.2%

Question: What about the “Receptor downregulation (EC50)” value [3] of the same binder?
Answer: 0.0522 nM

B6: AB-H24 (antibody, V domains shown)
VH: QVQLVQSGAEVKKPGASVKISCKASGYTFTDYNLHWVRQAPGQRLEWIGFIYPSNGITGYSQKFQGKATLTVDTSASTAYMELSSLRSEDTAVYYCARSTVDYFDYWGQGTTVTVSS
VL: B1 VL
notes: Humanized variant of murine 2F5.1; also called AB-24
Question: For B6, which “Maximal Downregulation (% CD33 remaining)” value [4] is on record?
Answer: 22.2%

Question: And the “Receptor downregulation (EC50)” value [4]?
Answer: 0.0725 nM

Question: And the “Fold Change to Chimeric Ab” value [5]?
Answer: 0.27 fold

Question: What about the Kd [5] of the same binder?
Answer: 6.02 nM

Question: And the koff [5]?
Answer: 0.00228 s⁻¹

Question: What about the kon [5] of the same binder?
Answer: 379000 M⁻¹ s⁻¹

B7: AB-H22 (antibody, V domains shown)
VH: B6 VH with S61N, Q65K, G66N
VL: B1 VL
notes: Humanized variant of murine 2F5.1; also called AB-22
Question: B7 was tested. Which “Maximal Downregulation (% CD33 remaining)” value [4] did it give?
Answer: 22.6%

Question: And the “Receptor downregulation (EC50)” value [4]?
Answer: 0.0901 nM

Question: What about the “Fold Change to Chimeric Ab” value [5] of the same binder?
Answer: 0.62 fold

Question: What about the Kd [5] of the same binder?
Answer: 2.63 nM

Question: What about the koff [5] of the same binder?
Answer: 0.00182 s⁻¹

Question: What about the kon [5] of the same binder?
Answer: 690000 M⁻¹ s⁻¹

B8: AB-H1 (antibody, V domains shown)
VH: B1 VH with A27Y, F34L, I48M, D63K, V72R, D100T
VL: B1 VL with K53Y
notes: Humanized variant of murine 2F5.1
Question: What does the source list for B8?
Answer: Maximal Downregulation (% CD33 remaining) [4]: 25%; Receptor downregulation (EC50) [4]: 0.127 nM; Fold Change to Chimeric Ab [5]: 1.03 fold; Kd [5]: 1.58 nM; koff [5]: 0.00186 s⁻¹; kon [5]: 1.18e+06 M⁻¹ s⁻¹

B9: AB-H3 (antibody, V domains shown)
VH: B6 VH with R44G, S61A, K67R, A76T, T112L, V113L
VL: B1 VL with K53Y
notes: as for B8
Question: What does the source list for B9?
Answer: Maximal Downregulation (% CD33 remaining) [4]: 21.2%; Receptor downregulation (EC50) [4]: 0.0933 nM; Fold Change to Chimeric Ab [5]: 1.43 fold; Kd [5]: 1.13 nM; koff [5]: 0.0014 s⁻¹; kon [5]: 1.23e+06 M⁻¹ s⁻¹

B10: AB-H71 (antibody, V domains shown)
VH: B6 VH with V11L, I20V
VL: B5 VL with G25A, E55A
notes: Humanized variant of murine 2F5.1; also called AB-71
Question: B10 was tested. Which “Maximal Downregulation (% CD33 remaining)” value [4] did it give?
Answer: 25.8%

Question: What about the “Receptor downregulation (EC50)” value [4] of the same binder?
Answer: 0.0412 nM

Question: And the “Fold Change to Chimeric Ab” value [5]?
Answer: 0.87 fold

Question: And the Kd [5]?
Answer: 1.88 nM

Question: And the koff [5]?
Answer: 0.00351 s⁻¹

Question: What about the kon [5] of the same binder?
Answer: 1.87e+06 M⁻¹ s⁻¹

B11: AB-H11 (antibody, V domains shown)
VH: B6 VH with I20V, R44S
VL: B1 VL with K53Y
notes: as for B8
Question: What does the source list for B11?
Answer: Maximal Downregulation (% CD33 remaining) [4]: 23.3%; Receptor downregulation (EC50) [4]: 0.0772 nM; Fold Change to Chimeric Ab [5]: 1.22 fold; Kd [5]: 1.33 nM; koff [5]: 0.00162 s⁻¹; kon [5]: 1.22e+06 M⁻¹ s⁻¹

B12: AB-14.8 (antibody, V domains shown)
VH: B1 VH with A27Y, F34Y, D63K
VL: B1 VL with S12P, S30G, E59G
Question: With B12 as the binder, how does the “Maximal Downregulation (% CD33 remaining)” value [1] read?
Answer: 21.2%

Question: What about the “Receptor downregulation (EC50)” value [1] of the same binder?
Answer: 0.0234 nM

Question: And the “Fold affinity improvement over parental Ab (AB-H14)” value [2]?
Answer: 13.6 fold

Question: What about the Kd [2] of the same binder?
Answer: 0.214 nM

Question: And the koff [2]?
Answer: 0.0002 s⁻¹

Question: What about the kon [2] of the same binder?
Answer: 935000 M⁻¹ s⁻¹

B13: AB-H6 (antibody, V domains shown)
VH: B1 VH with A27Y, F34L, I48M, D63K, V79A, D100T, L112T
VL: B1 VL with K53Y
notes: as for B8
Question: For B13, which “Maximal Downregulation (% CD33 remaining)” value [4] is on record?
Answer: 20.6%

Question: What about the “Receptor downregulation (EC50)” value [4] of the same binder?
Answer: 0.169 nM

Question: And the “Fold Change to Chimeric Ab” value [5]?
Answer: 1.18 fold

Question: What about the Kd [5] of the same binder?
Answer: 1.37 nM

Question: What about the koff [5] of the same binder?
Answer: 0.00151 s⁻¹

Question: What about the kon [5] of the same binder?
Answer: 1.1e+06 M⁻¹ s⁻¹

B14: AB-H26 (antibody, V domains shown)
VH: B6 VH with I20V, K67R
VL: B1 VL
notes: Humanized variant of murine 2F5.1; also called AB-26
Question: B14 was tested. Which “Maximal Downregulation (% CD33 remaining)” value [4] did it give?
Answer: 21.9%

Question: And the “Receptor downregulation (EC50)” value [4]?
Answer: 0.0519 nM

Question: And the “Fold Change to Chimeric Ab” value [5]?
Answer: 0.28 fold

Question: What about the Kd [5] of the same binder?
Answer: 5.86 nM

Question: What about the koff [5] of the same binder?
Answer: 0.00234 s⁻¹

Question: What about the kon [5] of the same binder?
Answer: 400000 M⁻¹ s⁻¹

B15: AB-14.3 (antibody, V domains shown)
VH: B1 VH with A27Y, F34Y, Y60S, D63K
VL: B1 VL with S28D, A55V
Question: B15 was tested. Which “Maximal Downregulation (% CD33 remaining)” value [1] did it give?
Answer: 25.4%

Question: What about the “Receptor downregulation (EC50)” value [1] of the same binder?
Answer: 0.043 nM

Question: And the “Fold affinity improvement over parental Ab (AB-H14)” value [2]?
Answer: 12.3 fold

Question: What about the Kd [2] of the same binder?
Answer: 0.236 nM

Question: And the koff [2]?
Answer: 0.0002 s⁻¹

Question: And the kon [2]?
Answer: 847000 M⁻¹ s⁻¹

B16: AB-63.16 (antibody, V domains shown)
VH: B1 VH with A27Y, F34Y, D63K
VL: B5 VL with G25A, S30H, E55A
Question: Which “Maximal Downregulation (% CD33 remaining)” value [3] does the source give for B16 here?
Answer: 23.4%

Question: And the “Receptor downregulation (EC50)” value [3]?
Answer: 0.0293 nM

B17: AB-14.4 (antibody, V domains shown)
VH: B1 VH with A27Y, F34Y, D63K, R98D, D100T
VL: B1 VL with S28D, A55V
Question: B17 was tested. Which “Maximal Downregulation (% CD33 remaining)” value [1] did it give?
Answer: 27.6%

Question: What about the “Receptor downregulation (EC50)” value [1] of the same binder?
Answer: 0.0582 nM

Question: What about the “Fold affinity improvement over parental Ab (AB-H14)” value [2] of the same binder?
Answer: 13 fold

Question: What about the Kd [2] of the same binder?
Answer: 0.224 nM

Question: What about the koff [2] of the same binder?
Answer: 0.0002 s⁻¹

Question: What about the kon [2] of the same binder?
Answer: 895000 M⁻¹ s⁻¹

B18: AB-63.18 (antibody, V domains shown)
VH: B1 VH with A16S, A27Y, F29H, F34L, D63K
VL: B5 VL with G25A
Question: B18 was tested. Which “Maximal Downregulation (% CD33 remaining)” value [3] did it give?
Answer: 26.8%

Question: What about the “Receptor downregulation (EC50)” value [3] of the same binder?
Answer: 0.0629 nM

Question: And the “Fold affinity improvement over parental Ab (AB-H63)” value [2]?
Answer: 4.44 fold

Question: And the Kd [2]?
Answer: 0.613 nM

B19: AB-14.7 (antibody, V domains shown)
VH: B1 VH with A27Y, F34Y, D63K
VL: B1 VL with S30G
Question: For B19, which “Maximal Downregulation (% CD33 remaining)” value [1] is on record?
Answer: 23.4%

Question: And the “Receptor downregulation (EC50)” value [1]?
Answer: 0.0351 nM

Question: And the “Fold affinity improvement over parental Ab (AB-H14)” value [2]?
Answer: 11.8 fold

Question: And the Kd [2]?
Answer: 0.246 nM

Question: What about the koff [2] of the same binder?
Answer: 0.0002 s⁻¹

Question: And the kon [2]?
Answer: 813000 M⁻¹ s⁻¹
